Consider one molecule from PMC10427353, “MSL1 Promotes Liver Regeneration by Driving Phase Separation of STAT3 and Histone H4 and Enhancing Their Acetylation” (Advanced Science, 2023).

Assay [1] addresses T1, STAT3 (recombinant, pET‐28a) (mouse, UniProt P42227 1-770).
T1 construct: STAT3 in pET‐28a; cDNA amplified from mouse liver; The legend of the sedimentation assay names 'STAT3'; source: E. coli BL21, purified (HiTrap HP chelating column)
Kind of assay: co-sedimentation; sedimentation assay of condensates: purified proteins mixed in phase separation buffer (20 mM HEPES pH 7.8, NaCl, PEG‐8000), 15 000 g for 10 min, supernatant and pellet on SDS–PAGE with Coomassie staining. As to conditions: both partners purified.

Assay [2] concerns the target T2, H4 (recombinant, pET‐28a) (mouse, UniProt P62806 1-103).
T2 construct: histone H4 in pET‐28a; cDNA amplified from mouse liver; The legend of the sedimentation assay names 'H4'; also called histone H4; source: E. coli BL21, purified (HiTrap HP chelating column)
The assay is described as above. As to conditions: both partners purified.

T1 sequence (P42227 whole entry): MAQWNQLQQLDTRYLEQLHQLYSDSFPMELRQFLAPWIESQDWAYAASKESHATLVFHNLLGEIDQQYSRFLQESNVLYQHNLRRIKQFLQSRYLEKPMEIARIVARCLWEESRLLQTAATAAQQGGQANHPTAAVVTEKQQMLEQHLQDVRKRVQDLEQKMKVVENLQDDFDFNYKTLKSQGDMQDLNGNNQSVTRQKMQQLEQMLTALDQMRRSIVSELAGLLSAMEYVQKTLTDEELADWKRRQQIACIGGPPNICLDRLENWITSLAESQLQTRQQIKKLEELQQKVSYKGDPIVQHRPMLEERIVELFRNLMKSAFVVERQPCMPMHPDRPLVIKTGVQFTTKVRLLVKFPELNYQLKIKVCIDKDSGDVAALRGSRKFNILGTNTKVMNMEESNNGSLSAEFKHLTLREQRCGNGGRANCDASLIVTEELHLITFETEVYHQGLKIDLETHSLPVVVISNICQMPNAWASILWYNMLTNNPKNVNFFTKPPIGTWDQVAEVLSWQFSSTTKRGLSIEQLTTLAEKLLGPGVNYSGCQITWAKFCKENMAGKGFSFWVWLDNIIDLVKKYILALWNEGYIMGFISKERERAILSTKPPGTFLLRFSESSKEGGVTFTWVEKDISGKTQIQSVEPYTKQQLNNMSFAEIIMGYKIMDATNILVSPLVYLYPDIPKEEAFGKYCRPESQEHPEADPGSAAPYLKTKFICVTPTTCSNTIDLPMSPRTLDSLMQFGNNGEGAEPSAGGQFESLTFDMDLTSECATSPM

B1: MSL1 (recombinant, pET‐28a) (natural protein, mouse, UniProt Q6PDM1 1-616, looked up)
chain: MTMRSAVFKAAAAPAGGNPEQRLDYERAAALGGPEDESGAAEAHFLPRHRKLKEPGPPLASSQGGSPSPSPAGCGGGKGRGLLLPAGAAPGQQEESWGGSVPLPCPPPATKQAGIGGEPVAAGAGCSPRPKYQAVLPIQTGSIVVAAAKEPTPWAGDKGGAAPPAATASDPAGPPPLPLPGPPPLAPTATAGTLAASEGRWKSIRKSPLGGGGGSGASSQAACLKQILLLQLDLIEQQQQQLQAKEKEIEELKSERDTLLARIERMERRMQLVKRDNEKERHKLLQGYEPEEREEAELSEKIKLERQPELCETSQALPSKPFSCGRSGKGHKRKTPFGNTERKTPVKKLAPEFSKVKTKTPKHSPIKEEPCGSISETVCKRELRSQETPEKPRSSVDTPPRLSTPQKGPSTHPKEKAFSSEMEDLPYLSTTEMYLCRWHQPPPSPLPLRESSPKKEETVARCLMPSSVAGETSVLAVPSWRDHSVEPLRDPNPSDILENLDDSVFSKRHAKLELDEKRRKRWDIQRIREQRILQRLQLRMYKKKGIQESEPEVTSFFPEPDDVESLLITPFLPVVAFGRPLPKLAPQNFELPWLDERSRCRLEIQKKHTPHRTCRK
notes: MSL1 in pET‐28a; cDNA amplified from mouse liver; The legend of the sedimentation assay names 'MSL1'; source: E. coli BL21, purified (HiTrap HP chelating column)
For the molecule B1, the binding result in assay [1] and in assay [2] was “binds” throughout.
